Data on 2 molecules can be found in patent US20230405119A1 (CITY OF HOPE, published 2023).

Numbering of substitutions follows the chain as printed. Numbers in names are those of the source.

For one experiment, the target named is T1, immobilized IL13Rα2 (UniProt Q14627 27-343, limits assumed).
T1 construct: also called IL13Ra2
T1 sequence (looked up): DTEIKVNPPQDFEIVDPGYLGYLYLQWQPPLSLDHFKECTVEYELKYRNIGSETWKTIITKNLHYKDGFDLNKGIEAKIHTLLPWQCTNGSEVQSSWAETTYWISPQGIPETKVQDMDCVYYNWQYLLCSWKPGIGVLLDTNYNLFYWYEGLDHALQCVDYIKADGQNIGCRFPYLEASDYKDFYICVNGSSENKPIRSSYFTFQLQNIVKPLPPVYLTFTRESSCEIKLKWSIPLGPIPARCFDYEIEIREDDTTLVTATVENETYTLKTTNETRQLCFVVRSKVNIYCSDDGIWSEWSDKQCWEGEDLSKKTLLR
Nature of the experiment: yeast-displayed IL13; surface plasmon resonance with immobilized recombinant receptor, as the filing words it. An excerpt:
(§1) In an effort to identify IL13 variants with increased selectivity for binding IL13Rα2 relative to IL13Rα1. To assess receptor binding various mutants were compared to wild-type IL13 ([…] […]; SEQ ID NO: 1) and the previously known […] E11Y mutant ([…] […]; SEQ ID NO: 69). […] Surface plasmon resonance with immobilized recombinant IL13Rα1 and immobilized IL13Rα2 was used to assess binding affinity. As expected, WT bound strongly to both IL13Rα1 and IL13Rα2.

Experiment [1] concerns the target T2, immobilized recombinant IL13Rα1 (UniProt P78552 22-343, limits assumed).
T2 construct: also called IL13Ra1
T2 sequence (looked up): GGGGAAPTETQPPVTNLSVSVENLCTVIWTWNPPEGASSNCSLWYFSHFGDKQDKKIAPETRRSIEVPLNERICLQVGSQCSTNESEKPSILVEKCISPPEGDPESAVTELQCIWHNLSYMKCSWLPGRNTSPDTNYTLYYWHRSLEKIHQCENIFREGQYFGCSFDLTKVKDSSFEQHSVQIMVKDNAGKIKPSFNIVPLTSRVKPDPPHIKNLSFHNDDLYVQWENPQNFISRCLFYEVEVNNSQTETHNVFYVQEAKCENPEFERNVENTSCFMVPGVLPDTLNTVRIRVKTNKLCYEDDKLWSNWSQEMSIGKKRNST
In words: yeast-displayed IL13 variant; surface plasmon resonance with immobilized recombinant receptor, as the filing words it.
Description: as §1
(In general: SPR reads the build-up and loss of mass on a sensor chip optically.)

B1: IL13 variant RLK (E11R: E90L: R107K) (ligand)
chain: GPVPPSTALRRLIEELVNITQNQKAPLCNGSMVWSINLTAGMYCAALESLINVSGCSAIEKTQRMLSGFCPHKVSAGQFSSLHVRDTKILVAQFVKDLLLHLKKLFKEGRFN
notes: display scaffold not described
With B1, the dissociation constant Kd (commonly the equilibrium constant for the complex coming apart) with immobilized IL13Rα2 worked out at 28 nM. For the same molecule, the binding result in experiment [1] was “no binding”.

B2: IL13 variant YLK (E11Y: E90L: R107K) (ligand)
chain: B1 chain with R11Y
notes: as for B1
With B2, the Kd with immobilized IL13Rα2 worked out at 26 nM. In experiment [1], the binding result was “no binding”.
